Assay: yeast display, Sf9 membrane polyspecificity reagent, FACS + sequencing; frameworks hold sequencing errors
Summary of the method: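 Nanobodies came from a synthetic yeast display library in Saccharomyces cerevisiae BJ5465, induced with galactose for 36–48 hours and stained for 1 hour at 4 °C with 10% biotinylated, detergent-solubilized Sf9 membrane reagent. Cells were enriched on streptavidin microbeads and then FACS-sorted, with low and high (top ~1%) gates set on anti-HA fluorescence for expression and streptavidin fluorescence for reagent binding. Each polyreactivity label reflects the gate a clone came from. Genes were amplified by colony PCR, sequenced by MiSeq 2 × 250 and filtered by CDR length.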

Row | Sequence | polyreactivity (PSR sort gate)
1 | QVQLVESGGGLVQAGGSLRLSCAASGSTFGDNAMVWYRQAPGKERELVAAITFRDGITYYADSVKGRITISRDNAKNSVYLQMNSLKPEDTAFYYCAKGVHRRWYYGYGYWGQGTQVTVSS | high polyreactivity
2 | QVQLVESGGGLVQAGGSLRLSCAASGSTFGDNTMGWYRQAPGKERELVASISKSGGSTYYADSVKGRFTISRDNAKNTVYLQMNSLKPEDTAVYYCNRVTHYIRFDYWGQGTQVTVSS | low polyreactivity
3 | QVQLVESGGGLVQAGGSLRLSCAASGSTFGDYAMGWYRQAPGKERELVAAMSRGGSTYYADSVKGRFTISRDNAKNTVYLQMNSLKPEDTAVYYCNKDEGYSASPDGSTFDYWGQGTQVTVSS | low polyreactivity
4 | QVQLVESGGGLVQAGGSLRLSCAASGSTFGEYAMGWYRQAPGKERELVASITFSAGSTDYADSVKGRFTISRDNAKNTVFLQMNSLKPEDTSVYYCAADGWWPWEYEYWGQGTQVTVSS | low polyreactivity
5 | QVQLVESGGGLVQAGGSLRLSCAASGSTFGFNAMGWYRQAPGKERELLPLFWSGGSTYYADSVKGRFTISRDNAKNTVYLQMNSLKPEDTAVYYCNKDSPPITRYDYWGQGTQVTVSS | low polyreactivity
6 | QVQLVESGGGLVQAGGSLRLSCAASGSTFGFYAMGWYRQAPGKERELVAAISGRGGSTYYADSVKGRFTISRDNAKNTVYLQMNSLKPEDTAVYYCNADWQDDLAGYVVDYWGLGTQVTVSS | low polyreactivity
7 | QVQLVESGGGLVQAGGSLRLSCAASGSTFGFYAMGWYRQAPGKERELVAAISWNDGSTYYADSVKGRFTISRDNAKNTVYLQMNSLKPEDTAVYYCATEYSLWYTRDWQRYEYWGQGTQVTVSS | high polyreactivity
8 | QVQLVESGGGLVQAGGSLRLSCAASGSTFGGNAMGWYRQAPGKERELVAAISSSGGSTYYADSVKGRFTISRDNAKNTVYLLMNSLKPEDTAVYYCNADDGYGQVHSISTYEMDYWGQGTQVTVSS | low polyreactivity
9 | QVQLVESGGGLVQAGGSLRLSCAASGSTFGGNAMGWYRQAPGKERELVAAISSSGGSTYYADSVKGRFTISRDNAKYTVYLQMNSLKPEDSAVYYCAALYHWTYDYWGLGTQVTVSS | low polyreactivity
10 | QVQLVESGGGLVQAGGSLRLSCAASGSTFGGNAMGWYRQAPGKERELVAVISKRGGSTYYADSVKGRFTISRDNAKNTVYLQMNSLKPEDTAVYYCAAGYFIRTRSRYRYDYWGQGTQVTVSS | high polyreactivity
11 | QVQLVESGGGLVQAGGSLRLSCAASGSTFGGYAKGWYRQAPGKERELVAAMSQSGTRTYYADSVKGRFTISRDKAKNTVYLQMNSLKPEDTAVYYCAAEKRFRKYDNWGQGTQVTVSS | high polyreactivity
12 | QVQLVESGGGLVQAGGSLRLSCAASGSTFGGYAMGWYRQAPGKERELVAAISSGGSTYYADSVKGRFTISRDNAKNTVYLQMNSLKPEDTAVYYCAAEGIYFILWYGYVEYDYWGQGTQVTVSS | low polyreactivity
13 | QVQLVESGGGLVQAGGSLRLSCAASGSTFGGYTMGWYRQAPGKERELVAAITSRGGTTYYADSVKGRFTISRDNAKNTVYLQMNSLKPEDTAVYYCNRVSRYFYGFYWGQGTQVTVSS | high polyreactivity
14 | QVQLVESGGGLVQAGGSLRLSCAASGSTFGHYARGWYRQATGKERELVAAISFTGARTYYADSVKGRFTISRDNAKNTVYLQMNSLKPEDTAVYYCIARGDYRISDYWGQGTQVTVSS | high polyreactivity
15 | QVQLVESGGGLVQAGGSLRLSCAASGSTFGINAMGWYRQAPGKERELVASITRRGGSTYYADSVKGRFTISRDNAKNTVYLRMNSLKPEDTAVYYCNKTYRYGTPLYDYWGQGTQVTVSS | high polyreactivity
16 | QVQLVESGGGLVQAGGSLRLSCAASGSTFGINAMGWYRQAPGKERELVAVIRAGGGRTYYADSVKGRFTISRDNAKNTVYLQMNSLKPEDTAVYYCAARYYSRYVSVYASSKTGYDYWGQGTQVTVSS | high polyreactivity
17 | QVQLVESGGGLVQAGGSLRLSCAASGSTFGIYSMGWYRQAPGKERELVAAISVRGGRTYYADSVKGRFTISRDNAKNTVYLQMNSLKPEDTAVYYCAPTWYWGNDYWGQGTQVTVSS | low polyreactivity
18 | QVQLVESGGGLVQAGGSLRLSCAASGSTFGKYVMGWYRQAPGKERELVAAISRSGGSTYYADSVKGRFTISRDNAKNTVYFQMNSLKPEDTAVYYCATVGYGYDYWGQGTQVTVSS | high polyreactivity
19 | QVQLVESGGGLVQAGGSLRLSCAASGSTFGLYAMGWYRQAPGKEREFVAAISWRTGSTYYADSVKGRFTISRDNAKNTVFLQMYSLKPEDTAVYYCAARAYGTIIHGYWGQGTHVTVSS | high polyreactivity
20 | QVQLVESGGGLVQAGGSLRLSCAASGSTFGLYAMGWYRQAPGKERELVAAISSGGSTYYADSVKGRFTISRDNAKNTVYLQMNSLKPEDTAVYYCATGYWAYTIEYYYWGQGTQVTVSS | low polyreactivity
21 | QVQLVESGGGLVQAGGSLRLSCAASGSTFGLYAMGWYRQAPGKERELVAAITGRASSTYYADSVKGRFTISRDNAKNTVYLQMNSLKPEDTAVYDCAASGFGQISNPRRDYWGQGTQVTVSS | high polyreactivity
22 | QVQLVESGGGLVQAGGSLRLSCAASGSTFGLYARGWYRQAPGKERELVAAISGGRTYYADSVKGRFTISRDNAKNTVYLQMNSLKPEDTAVYYCAADYNYYWGQGTQVTVSS | high polyreactivity

Row | Sequence | polyreactivity (PSR sort gate)
23 | QVQLVESGGGLVQAGGSLRLSCAASGSTFGLYGMGWYRQAPGKERELVAAITYSGGGTYYADSVKGRFTISRDNAKNTVYLQMNSLKPEDTAVYYCAAEYYSSITGWYYYWGQGTQVTVSS | low polyreactivity
24 | QVQLVESGGGLVQAGGSLRLSCAASGSTFGNNAMGWYRQAAGKERELVAGINSGGSTTYADSVKGRFTISRDNAKNTVYLQMNSLKPEDTAVYYCAAVYYYYSWYSKHYYWGQGTQVTVSS | low polyreactivity
25 | QVQLVESGGGLVQAGGSLRLSCAASGSTFGNNAMGWYRQAPGKERELVATIDDTTVSTNYADSVKGRFTISRDNAKNTVYLQMNSLKPEDTAVYYCAADDVDGSPYDYWGQGTQVTVSS | low polyreactivity
26 | QVQLVESGGGLVQAGGSLRLSCAASGSTFGNNAMGWYRQAPGKERELVATIDDTTVSTNYADSVKWRFTISRDNAKNTVYLQMNSLKPEDTAVYYCAAPVGNYGSFDYWGQGTQVTVSS | low polyreactivity
27 | QVQLVESGGGLVQAGGSLRLSCAASGSTFGPNGMGWYRQAPGKERELVARIDRIGGGTYYADSVKGRFTISRDNAKNTVYLQMNSLKPEDTAVYSCAADGPSPFIQGYAKGDYWGQGTQVTVSS | low polyreactivity
28 | QVQLVESGGGLVQAGGSLRLSCAASGSTFGPNTMGWYRQAPGKERELVAAISRAGRTYYADSVKGRFTISRDNAKNTVYLQMNSLKPEDTAVYYCNAGRSYHWRAGGEYDYWGQGTQVTVSS | low polyreactivity
29 | QVQLVESGGGLVQAGGSLRLSCAASGSTFGPYAMAWYRQAPGKERELVAAIDKSGGSTYYADSVKGRFTLSRDNAKNTVYLQMNSLKPEDTAVYYCAADLVRYFGYYDYDSWGQGTQVTVSS | low polyreactivity
30 | QVQLVESGGGLVQAGGSLRLSCAASGSTFGPYAMGWYRPAPGKERELVAAITSSGGTTYYADSVKGRFTISRDNAKNTVYLQMNSLKPEDTAVYYCAVDYYGKVGDDYWGQGTQVTVSS | low polyreactivity
31 | QVQLVESGGGLVQAGGSLRLSCAASGSTFGPYAMGWYRQAPGKERELVAAISRRGTSTYYADSVKGRFTISRDNAKNTVYLQMISLKPEDTAVYYCAADRLLYGGGREYWGQGTQVTVSS | high polyreactivity
32 | QVQLVESGGGLVQAGGSLRLSCAASGSTFGPYAMGWYRQAPGKERELVAAITWNGGSTYYADSVKGRFTISRDNAKNSVYLQMNSLKPEDTAVSFCNAVGSYGDFGYWGQGTQVTVSS | high polyreactivity
33 | QVQLVESGGGLVQAGGSLRLSCAASGSTFGPYAMGWYRQAPGKERELVADITVSDGSTYYADSVKGRFTISRDNAKNTVYLQMNSLKPEHTAVYYCAAEIYYSFGYWGQGTQVTVSS | low polyreactivity
34 | QVQLVESGGGLVQAGGSLRLSCAASGSTFGPYVMRWYRQAPGKERELVAGISSSGGSTYYADSVKGRFTISRDNAKNTVYLQMNSLKPEDTAVYYCAAVWTTGWIDSYTAWYSYEYWGQGTQVTVSS | low polyreactivity
35 | QVQLVESGGGLVQAGGSLRLSCAASGSTFGRNTMGWYRQAPGKERELVAAISKSGGSTRYADSVKGRFTISRDNAKNTVYLQMNSVKPEDTAVYYCAARVYSLGYGGDYWGQGTQVTVSS | high polyreactivity
36 | QVQLVESGGGLVQAGGSLRLSCAASGSTFGRSVMGWYRQAPGNVRELVGAISRRGGSTYYADSVKGRFTISRDNAKKTVYIQLHSRKPEDPAVYYSPVDGARSGEPYDSMDYWGQGTHVTVSS | high polyreactivity
37 | QVQLVESGGGLVQAGGSLRLSCAASGSTFGRYAMGWYRQAPGKERELVAAINFNGGRTYYADSVKGRFTISRDNAKNTVYLQMNSLKPEDTAVYYCNALQQYALSRYYWGQGTQVTVSS | high polyreactivity
38 | QVQLVESGGGLVQAGGSLRLSCAASGSTFGRYAMGWYRQAPGKERELVAAITRGGSTNYADSVKGRFTISRDNAKNTVYLPMNSLKPEDTAVYYCAADKPGIFSRFDYWGQGTQVTVSS | low polyreactivity
39 | QVQLVESGGGLVQAGGSLRLSCAASGSTFGRYAMGWYRQAPGKEREMVAGITYGSTYYADSVKGRFTISRDNAKNTVYLQMNSLKPEDTAVYYCAADLSYTCVHGYRSDTLMDYWGQGTQVTVSS | low polyreactivity
40 | QVQLVESGGGLVQAGGSLRLSCAASGSTFGSNAMGWYRQAPGKERELVAAITGGDVSTYYADSVKGRFTISRDNAKNTDYLQMNSLKPEDTAVYYCNAEYARPAMDYWGQGTQVTVSS | low polyreactivity
41 | QVQLVESGGGLVQAGGSLRLSCAASGSTFGSYAMGLYRQAPGKERELVAAITQIGGSTYYADSVKGRFTISRDNAKNTVYLQMNSLKPEDTAVYYCAVTAGRGGYPQGGVTRGYWGQGTQVTVSS | high polyreactivity
42 | QVQLVESGGGLVQAGGSLRLSCAASGSTFGSYAMGWYRQAPGKEREFVATINTSNDRTYYADSVKGRFTISRDKAKNTVYLQMNSLKPEDTAVYYSNVLVYNVHTRGYWGQGTQVTVSS | high polyreactivity
43 | QVQLVESGGGLVQAGGSLRLSCAASGSTFGSYAMGWYRQAPGKERELVAAIRRGGSTTYADSVKGRFTISRDNAKNTVYLQMYSLKPEDTAVYYCAAPELNEGLPLDYWGQGTQVTVSS | low polyreactivity

Source: the nanobody polyreactivity screen of Harvey et al. (2022)
